What was measured:
Centromere B [1] = molecular target: T1, Centromere B (UniProt P07199); experiment: AtheNA, Ab 25 ug/ml
T1 sequence (looked up): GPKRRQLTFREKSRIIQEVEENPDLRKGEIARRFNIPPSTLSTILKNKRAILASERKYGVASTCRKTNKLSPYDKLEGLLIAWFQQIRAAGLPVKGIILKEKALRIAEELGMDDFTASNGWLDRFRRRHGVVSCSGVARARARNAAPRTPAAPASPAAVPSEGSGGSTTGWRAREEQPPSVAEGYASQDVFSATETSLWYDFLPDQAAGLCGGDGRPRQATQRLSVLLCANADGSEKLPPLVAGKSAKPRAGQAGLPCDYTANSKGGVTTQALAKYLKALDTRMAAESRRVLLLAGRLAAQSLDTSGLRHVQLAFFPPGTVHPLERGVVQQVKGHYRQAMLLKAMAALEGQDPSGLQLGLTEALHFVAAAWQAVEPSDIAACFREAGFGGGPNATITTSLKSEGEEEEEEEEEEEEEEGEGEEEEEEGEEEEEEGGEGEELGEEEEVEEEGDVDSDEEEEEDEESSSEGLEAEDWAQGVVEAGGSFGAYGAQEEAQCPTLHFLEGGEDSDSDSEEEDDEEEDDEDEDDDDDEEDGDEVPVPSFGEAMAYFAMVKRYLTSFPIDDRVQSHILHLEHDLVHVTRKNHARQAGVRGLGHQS

Histones [2] = experiment: AtheNA, Ab 25 ug/ml
Jo-1 [3] = molecular target: T2, Jo-1 (UniProt P12081); experiment: AtheNA, Ab 25 ug/ml
T2 sequence (looked up): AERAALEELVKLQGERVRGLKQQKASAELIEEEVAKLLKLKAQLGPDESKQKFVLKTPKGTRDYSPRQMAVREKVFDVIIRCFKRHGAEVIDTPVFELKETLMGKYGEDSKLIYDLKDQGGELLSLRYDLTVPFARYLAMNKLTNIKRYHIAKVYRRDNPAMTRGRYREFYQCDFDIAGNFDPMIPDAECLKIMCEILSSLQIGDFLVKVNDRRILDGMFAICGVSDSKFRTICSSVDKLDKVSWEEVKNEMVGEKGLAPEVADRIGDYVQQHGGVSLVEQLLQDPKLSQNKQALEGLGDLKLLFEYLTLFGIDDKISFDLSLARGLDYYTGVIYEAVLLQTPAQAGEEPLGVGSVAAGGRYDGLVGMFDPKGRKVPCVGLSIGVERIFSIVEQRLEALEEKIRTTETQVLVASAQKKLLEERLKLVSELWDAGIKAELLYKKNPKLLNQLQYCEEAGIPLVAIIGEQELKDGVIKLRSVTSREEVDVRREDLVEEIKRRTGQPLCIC

RNP (ribonucleoprotein) [4] = experiment: AtheNA, Ab 25 ug/ml
SSA [5] = experiment: AtheNA, Ab 25 ug/ml
SSB [6] = molecular target: SSB (UniProt P05455); experiment: AtheNA, Ab 25 ug/ml
Scl-70 [7] = molecular target: Scl-70 (UniProt P11387); experiment: AtheNA, Ab 25 ug/ml
Sm (Smith antigen) [8] = experiment: AtheNA, Ab 25 ug/ml
Jo-1 [9] = molecular target: T2, Jo-1; experiment: AtheNA, Ab 50 ug/ml
SSB [10] = molecular target: SSB (UniProt P05455); experiment: AtheNA, Ab 50 ug/ml
Centromere B [11] = molecular target: T1, Centromere B; experiment: AtheNA, Ab 25 ug/ml; remark: listed apart in the source
Histones [12] = experiment: AtheNA, Ab 25 ug/ml; remark: listed apart in the source
Jo-1 [13] = molecular target: T2, Jo-1; experiment: AtheNA, Ab 25 ug/ml; remark: listed apart in the source
RNP (ribonucleoprotein) [14] = experiment: AtheNA, Ab 25 ug/ml; remark: listed apart in the source
SSA [15] = experiment: AtheNA, Ab 25 ug/ml; remark: listed apart in the source
SSB [16] = molecular target: SSB (UniProt P05455); experiment: AtheNA, Ab 25 ug/ml; remark: listed apart in the source
Scl-70 [17] = molecular target: Scl-70 (UniProt P11387); experiment: AtheNA, Ab 25 ug/ml; remark: listed apart in the source
Sm (Smith antigen) [18] = experiment: AtheNA, Ab 25 ug/ml; remark: listed apart in the source
Jo-1 [19] = molecular target: T2, Jo-1; experiment: AtheNA, Ab 50 ug/ml; remark: listed apart in the source
SSB [20] = molecular target: SSB (UniProt P05455); experiment: AtheNA, Ab 50 ug/ml; remark: listed apart in the source
Centromere B [21] = molecular target: T1, Centromere B; experiment: AtheNA, Ab 12.5 ug/ml
Histones [22] = experiment: AtheNA, Ab 12.5 ug/ml
Jo-1 [23] = molecular target: T2, Jo-1; experiment: AtheNA, Ab 12.5 ug/ml
RNP (ribonucleoprotein) [24] = experiment: AtheNA, Ab 12.5 ug/ml
SSA [25] = experiment: AtheNA, Ab 12.5 ug/ml
SSB [26] = molecular target: SSB (UniProt P05455); experiment: AtheNA, Ab 12.5 ug/ml
Scl-70 [27] = molecular target: Scl-70 (UniProt P11387); experiment: AtheNA, Ab 12.5 ug/ml
Sm (Smith antigen) [28] = experiment: AtheNA, Ab 12.5 ug/ml
Centromere B [29] = molecular target: T1, Centromere B; experiment: AtheNA, Ab 6.25 ug/ml
Histones [30] = experiment: AtheNA, Ab 6.25 ug/ml
Jo-1 [31] = molecular target: T2, Jo-1; experiment: AtheNA, Ab 6.25 ug/ml
RNP (ribonucleoprotein) [32] = experiment: AtheNA, Ab 6.25 ug/ml
SSA [33] = experiment: AtheNA, Ab 6.25 ug/ml
SSB [34] = molecular target: SSB (UniProt P05455); experiment: AtheNA, Ab 6.25 ug/ml
Scl-70 [35] = molecular target: Scl-70 (UniProt P11387); experiment: AtheNA, Ab 6.25 ug/ml
Sm (Smith antigen) [36] = experiment: AtheNA, Ab 6.25 ug/ml

SSB, sequence (P05455 whole entry): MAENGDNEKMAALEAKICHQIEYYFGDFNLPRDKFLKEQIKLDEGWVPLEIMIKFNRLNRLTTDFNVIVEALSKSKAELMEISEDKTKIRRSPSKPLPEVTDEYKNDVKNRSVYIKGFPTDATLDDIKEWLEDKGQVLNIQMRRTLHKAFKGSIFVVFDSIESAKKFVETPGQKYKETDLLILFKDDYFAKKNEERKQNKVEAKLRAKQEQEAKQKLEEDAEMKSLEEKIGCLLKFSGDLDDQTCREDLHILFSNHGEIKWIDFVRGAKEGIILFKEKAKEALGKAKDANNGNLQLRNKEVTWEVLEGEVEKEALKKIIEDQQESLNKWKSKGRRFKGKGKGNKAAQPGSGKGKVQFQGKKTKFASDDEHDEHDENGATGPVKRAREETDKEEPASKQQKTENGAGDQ
Scl-70, sequence (P11387 2-765 limits assumed): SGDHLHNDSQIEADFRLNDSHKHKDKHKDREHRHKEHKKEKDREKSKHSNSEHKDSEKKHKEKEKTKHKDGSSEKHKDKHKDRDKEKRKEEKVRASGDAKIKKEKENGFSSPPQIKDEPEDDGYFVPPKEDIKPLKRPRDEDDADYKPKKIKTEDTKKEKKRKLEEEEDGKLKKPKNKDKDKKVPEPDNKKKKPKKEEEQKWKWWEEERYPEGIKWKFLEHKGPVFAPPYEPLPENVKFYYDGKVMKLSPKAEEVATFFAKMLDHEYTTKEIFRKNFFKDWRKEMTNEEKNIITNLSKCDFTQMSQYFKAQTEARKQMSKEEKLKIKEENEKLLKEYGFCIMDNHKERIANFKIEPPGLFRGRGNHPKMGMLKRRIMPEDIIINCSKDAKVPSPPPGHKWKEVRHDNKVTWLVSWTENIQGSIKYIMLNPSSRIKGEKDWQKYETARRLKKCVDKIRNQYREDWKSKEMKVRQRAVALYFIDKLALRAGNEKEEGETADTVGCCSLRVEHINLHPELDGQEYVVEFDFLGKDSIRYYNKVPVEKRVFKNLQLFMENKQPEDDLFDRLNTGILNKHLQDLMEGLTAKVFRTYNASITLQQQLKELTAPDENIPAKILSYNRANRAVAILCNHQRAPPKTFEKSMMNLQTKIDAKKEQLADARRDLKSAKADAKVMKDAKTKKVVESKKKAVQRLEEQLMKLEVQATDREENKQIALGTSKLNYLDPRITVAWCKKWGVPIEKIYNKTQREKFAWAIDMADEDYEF

## 4E10 IgG1 (antibody)
Centromere B [1]
  Athena reading (relative luminescence units): 3
Histones [2]
  Athena reading (relative luminescence units): 10
Jo-1 [3]
  Athena reading (relative luminescence units): 160
RNP (ribonucleoprotein) [4]
  Athena reading (relative luminescence units): 3
SSA [5]
  Athena reading (relative luminescence units): 33
SSB [6]
  Athena reading (relative luminescence units): 227
Scl-70 [7]
  Athena reading (relative luminescence units): 1
Sm (Smith antigen) [8]
  Athena reading (relative luminescence units): 2
Jo-1 [9]
  Athena reading (relative luminescence units): 190
SSB [10]
  Athena reading (relative luminescence units): 263
Centromere B [11]
  Athena reading (relative luminescence units): 9
Histones [12]
  Athena reading (relative luminescence units): 24
Jo-1 [13]
  Athena reading (relative luminescence units): 206
RNP (ribonucleoprotein) [14]
  Athena reading (relative luminescence units): 20
SSA [15]
  Athena reading (relative luminescence units): 81
SSB [16]
  Athena reading (relative luminescence units): 189
Scl-70 [17]
  Athena reading (relative luminescence units): 4
Sm (Smith antigen) [18]
  Athena reading (relative luminescence units): 46
Jo-1 [19]
  Athena reading (relative luminescence units): 227
SSB [20]
  Athena reading (relative luminescence units): 207
Centromere B [21]
  Athena reading (relative luminescence units): 1
Histones [22]
  Athena reading (relative luminescence units): 7
Jo-1 [23]
  Athena reading (relative luminescence units): 131
RNP (ribonucleoprotein) [24]
  Athena reading (relative luminescence units): 3
SSA [25]
  Athena reading (relative luminescence units): 21
SSB [26]
  Athena reading (relative luminescence units): 199
Scl-70 [27]
  Athena reading (relative luminescence units): 0
Sm (Smith antigen) [28]
  Athena reading (relative luminescence units): 3
Centromere B [29]
  Athena reading (relative luminescence units): 2
Histones [30]
  Athena reading (relative luminescence units): 6
Jo-1 [31]
  Athena reading (relative luminescence units): 113
RNP (ribonucleoprotein) [32]
  Athena reading (relative luminescence units): 3
SSA [33]
  Athena reading (relative luminescence units): 17
SSB [34]
  Athena reading (relative luminescence units): 178
Scl-70 [35]
  Athena reading (relative luminescence units): 1
Sm (Smith antigen) [36]
  Athena reading (relative luminescence units): 3

Source: patent US10344077
